Drawing on publication PMC7092865, this text covers binding result and Kd for four molecules.

Data set [1] addresses T1, SUDc5b (SARS coronavirus TOR2, UniProt P0C6U8 1207-1380). Description: EMSA.
Data set [2] addresses T2, SUD full-length (Nsp3c) (SARS coronavirus TOR2, UniProt P0C6U8 1167-1544). Description: EMSA. (In general: A gel shift assay detects complexes by their altered migration in electrophoresis.)
The target of data set [3] is T1, SUDc5b. Description: EMSA. This is another data set of the same source.
The target in data set [4] is T2, SUD full-length (Nsp3c). Kind of data set: EMSA. The source holds these as a separate data set.
For data set [5], the target named is T1, SUDc5b. Description: zone-interference gel electrophoresis.

Like-named read-outs stand apart in the source and are kept apart here.

B1: bbc3-A14 RNA (ssRNA)
RNA: GGGUGACACUAAAAAAAAAAAAAACUCUCCUCUCGGUGCUCCUUCACUC
Regarding B1, the binding result with SUDc5b [1] and in the data set with SUD full-length (Nsp3c) [2] was “no binding” throughout.

B2: bbc3-G14 RNA (ssRNA)
RNA: GGGUGACACUGGGGGGGGGGGGGGCUCUCCUCUCGGUGCUCCUUCACUC
Consider B2, for which the binding result in the data set with SUDc5b [3] and in the data set with SUD full-length (Nsp3c) [4] was “binds” in each case.

B3: 3(-) (ssDNA)
DNA: ATGTAATGCGGGGGGCACTACGTT
Consider B3, for which the Kd – broadly, the free concentration of one partner at which half of the binding sites on the other are occupied at equilibrium, for simple one-to-one binding – in the data set with SUDc5b [5] is approximately 1000 nM.

B4: 2(+) (ssDNA)
DNA: CATCTATGAGGGGGGTTTACTATC
B4: the Kd with SUDc5b [5] is approximately 1000 nM.
